Reference: the nanobody polyreactivity screen of Harvey et al. (2022)

Experiment: yeast display, Sf9 membrane polyspecificity reagent, FACS + sequencing; frameworks hold sequencing errors
How it was run: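 Genes from sorted yeast were amplified by colony PCR, read by MiSeq 2 × 250 sequencing and filtered on CDR length. These cells carried a synthetic nanobody library in Saccharomyces cerevisiae BJ5465 and were sorted by FACS into low and high (top ~1%) gates on anti-HA and streptavidin fluorescence. Polyreactivity is labelled according to the gate of origin.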
With “QVQLVESGGGLVQAGGSLRLSFAASGRNFYRYAMGWYRQAPGKERELVAAISRGGRTNYADSVKGRFTISRDNAKNTGYLQMNSLKPEDTAVYYCAVTNFGALYDYWGQGTQVTVSS” the “polyreactivity (PSR sort gate)” value was “high polyreactivity”.
In the case of “QVQLVESGGALVQAGGSLRLSCAASGRTFGHNAMGCSRQAPGKEREFVAAITYSGVRTFYADSVKGRFTISRDNAQNTVYLQMNSLKPEDTAVYYCATDWRRDYDYWGQGTQVTVSS”, the “polyreactivity (PSR sort gate)” value is reported as “low polyreactivity”.
With “QVQLVESGGGLVQAGGSLRLSCAASGFIFAYYAMGWYRQAPGKERELVAGNSGDGSTNYADSVKGRFTISRDNAKNTVYLQMNSLKPEDTAVYYCAAATGVGLEYDYWGQGTQVTVSS” the “polyreactivity (PSR sort gate)” value was “low polyreactivity”.
With “QVQLVESGGGLVQAGGSLRLSCAASGSTLHYNAMGWYRQAPGKERELVARISWSGGSTYYADSVKGRFTISRDTAKNTVYLQMNSLKPEDTAVYYCAAPRYGHYTWLYDYWGQGTQVTVSS” the “polyreactivity (PSR sort gate)” value was “low polyreactivity”.
For “QVQLVESGGGLVQAGGSLRLSCAASGSIFEEYAMGWYRQAPGKERELVARIDESGGSTYYADSVKGRFTISRDNAKNTVYLQMNSLKPEDTAVYYCAAERYSDSWGFYSVDEGSWEMDYWGQGTQVTVSS”, the “polyreactivity (PSR sort gate)” value was “low polyreactivity”.
In the case of “QVQLVESGGGLVQAGGSLRLSCAASGRTFIQYAMGWYRQAPGKERELVAAISLSGGSTYYADSVKGRFTISRDNAKNTVYLQMNSLKPEDTAVYYCNAGYYWGQGTQVTVSS”, the “polyreactivity (PSR sort gate)” value is reported as “high polyreactivity”.
In the case of “QVQLVESGGGLVQAGGSLRLSCAASGFTFPYYAMGWYRQSPGKERELVASISRRGGSTYYADSVKGRFTISRDNANNSVYLQMKSLKPEDTAVYYCAADGSRGRWTFDYWGQGTQVTVSS”, the “polyreactivity (PSR sort gate)” value is reported as “high polyreactivity”.
In the case of “QVQLVESGGGLVQAGGSLRLSCAASGLIFDPYAMGWYRQAPGKERELVADISSGGSTNYADSVKGRFTISRDNAKNTVYLQMTSLKPEDTAVYYCNKTIILDGYYFSLTLYDSWGQGTQVTVSS”, the “polyreactivity (PSR sort gate)” value is reported as “low polyreactivity”.
For “QVQLEESGGGLVQAGGSLRLSCAASGRTLGYNAMGWYRQAPGKERELVAAISYGGGGTYYADSVKGRFTISRDNAKNTVYLQMNSLKPEDSAVYYCAKPRAFVGYNHWGQGTQVSVSS”, the “polyreactivity (PSR sort gate)” value was “low polyreactivity”.
With “QVQLVESGGGLVQAGGSLRLSCAASGFISAYYAMGWYRQAPAKERELVAGINSNGGSTYYADSVKGRFTISRDNAKNTVYLQMNSLKPEDTAVYYCNKRYRHLYYKSVGSYDYWGQGTQVTVSS” the “polyreactivity (PSR sort gate)” value was “high polyreactivity”.
In the case of “QVQLVESGGGLVQAGGSLRLSCAASGSTFIGYDMGWYRQAPGKERELVAAISYSDGTYYADSVKGRFTISRDNAKNTVYLQMNSLKPEDTAVYYCAAVSLYYRYDYWGQGTQVTVSS”, the “polyreactivity (PSR sort gate)” value is reported as “low polyreactivity”.
In the case of “QVQLVESGGGLVQAGGSLRLSCAASGSIFGLYAMGWYRQAPGKERELVAAITASDGSTYYADSVKGRFTISRDNAKNTVYLQMNSLKPEDTAVYYCNADAYSGYFLFDYWGQGTQVTVSS”, the “polyreactivity (PSR sort gate)” value is reported as “low polyreactivity”.
For “QVQLVESGGGLVQAGGSLRLSCAASGSIAGNAMGWYRQAPGKERELVAAITFRGSGTYYADSVKGRFTISRDNAKNTVYLQMNSLKPEDTAVDYCNAYRRGLSVYGYWGQGTQVTVSS”, the “polyreactivity (PSR sort gate)” value was “high polyreactivity”.
For “QVQLVESGGGLVQAGGSLRLSCAASGSTFLFNGMGWYRQAPGKERELVAAISRSGGRTYYADSVKGRFTISRDNAKNTVYLQMNSLKPEDTAVYYCAAKYRLSGGYGVDYWGQGTQVTVSS”, the “polyreactivity (PSR sort gate)” value was “high polyreactivity”.
For “QVQLVESGGGLVQAGGSLRLSCAASGSTFRYYSMGWYRQAPGKERELVAAITRSGTSTYYADSVKGRFTISRDTAKNTVYLQMNSLQPEDTAFYYCNAVTPYSREYDYWGQGTQVTVSS”, the “polyreactivity (PSR sort gate)” value was “high polyreactivity”.
For “QVQLVESGGGLVQAGGSLRLSCAASGIFRLNAMGWYRQAPGKERELVAAISWSGGSTRYADSVKGRFTISRDNAKNTVYLQMNSLKPEDTAVYYCAKKLRGWHTIITDYDYWGLGTQVTVSS”, the “polyreactivity (PSR sort gate)” value was “low polyreactivity”.
In the case of “QVQLVESGGGLVQAGGSLRLSCAASGRTFHQYAKGWYRQAPGKERELVAAISRSGGRTYYADSVKGRFTISRDNAKNTVYLQMNSLIPEDSAVYYCNRDIGGTSVLDDYWGQGTQVTVSS”, the “polyreactivity (PSR sort gate)” value is reported as “low polyreactivity”.
In the case of “QVQLVESGGGLVQAGGSLRLSCAASGFIFYSYAMGWSRQAPGKERELVAAISSTGTSTYYADSVKGRFTISRDNAKNTVYLQMNSLKPEDTAVYYCNAGYAFDPDETYDYWGQGTQVTVSS”, the “polyreactivity (PSR sort gate)” value is reported as “low polyreactivity”.
For “QVQLVESGGGLVQAGGSLRLSCAASGRTFSLNTMGWYRQAPGTERELVATISYSGDRTYYADSVKGRFTISRDNAKNTVYLQMNSLKPEETAVYYCAAQYWGRSYAGRYDYWGQGTQVTVSS”, the “polyreactivity (PSR sort gate)” value was “high polyreactivity”.
For “QVQLVESVGGLVQAGGSLRLSCAASGSIFVRNAMGWYRQAPGKERELVAGISRSGGSTNYADSVKGRFTISRDNAKNTVYLQMNSLKPEDTAVYYCAASRLVWVGRPWYQVRGDYWGQGTHVTVSS”, the “polyreactivity (PSR sort gate)” value was “high polyreactivity”.
With “QVQLVESGGGLVQAGGSLRLSCAASGSTFVGYVMGWYRQAPGKERELVAAITRSGTSTYYADSVKGRFTISRDNAKNTVYLQMNSLKPEDTAVYYCARRYVSSDYYYWGQGTQVTVSS” the “polyreactivity (PSR sort gate)” value was “low polyreactivity”.
For “QVQLVESGGGLVQAGGSLRLSSAASGRIFYSNAMGWYRQAPGKERELVAAITRSGGGTYYADSVKGRFTISSDNAKNTVYLLMNSLKPEDTAVYYCAAIYNWWGLGSLYYGSNYWGQGTQVTVSS”, the “polyreactivity (PSR sort gate)” value was “high polyreactivity”.
For “QVQLVESGGGLVQAGGSLRLSCAASGSTFEGYAMGWYRQAPGKERELVAVISSGSITKYADSVKGRFTISRDNAKNTVYLQMNSLKPEDTAVYYCARKGGIIFASYLLGGYWGQGTQVTVSS”, the “polyreactivity (PSR sort gate)” value was “low polyreactivity”.
With “QVQLVESGGGLVQAGGSLRLSCAASGLTFGVYAMGWYRQAPGQERELVAASTWGDGSTYYADSVKGRFTISRDNAKNTGYLQMNSLKPEDTAVYYCNAVTRRHKYYYWGQGTQVTVSS” the “polyreactivity (PSR sort gate)” value was “high polyreactivity”.
For “QVQLVESGGGLVQAGGSLRLSCAASGFIFVYNAMGWYRQAPGKERELVAVISSGGSTYYADSVKGRFTISRDNAKNTVYLQMNSLKPEDTAVYYCNKRRYDIKDEYDYWGQGTQVTVSS”, the “polyreactivity (PSR sort gate)” value was “low polyreactivity”.
For “QVQLVESGGGLVQAGGSLRLSCAASGRIFFTYVMGWYRQAPGKERELVATIRVSGGSTYYADSVKGRFTISRDNAKNTVYLQMNSLKPEDTAVYYCAASGASWSLHYAGDYWGQGTQVTVSS”, the “polyreactivity (PSR sort gate)” value was “high polyreactivity”.
In the case of “QVQLVESGGGLVQAGGSLRLSSAASGRIFYRNAMGWYRQAPGKEREMVAAIRGSGGRTYYADSVKGRFTISRDNAKYTVYLQMISLKPEDTAVYYCAAYGYYVEHPRGLSGPYDDDYWGQGTQVTVSS”, the “polyreactivity (PSR sort gate)” value is reported as “low polyreactivity”.
With “HVQLVESGGGLVQAGGSLRLRCAASGFTFYYNAMGWSRQAPGKERELVAAISTRGGNTYYADSVKGRFTISRDYAKNTVYLQRNSLKPEATAVYYCARIIRREGRYDYWGHGTQVTVSS” the “polyreactivity (PSR sort gate)” value was “high polyreactivity”.
For “QVQLVESGGGLVQAGGSLRLSCAASGRTFHRYAMGWYRQAPGKERELVAAITYRGGRTYYADSVKGRFTISRDNANNTVYLQMNSLKPEDTAVYYCNTTQYSPIHDPGDYWGQGTQVTVSS”, the “polyreactivity (PSR sort gate)” value was “low polyreactivity”.
For “QVQLVESGGGLVQAGGSLRLSCAASGLTFGRNAMGWYRQSPGKERELVAAITFNGGSTYYADSVKGRFTISRDNAKNTVYFQMNSLKPEDTAVYYCAARLWRRSRFDYWGLGTQVTVSS”, the “polyreactivity (PSR sort gate)” value was “high polyreactivity”.
For “HVQLVESGGGLVQARGSLRLSCAASGRTSWYYAMGWYRQAPGKEKELVAAITASGGSTYADSVKGRFTISRDNAKNTVYLEMNSLKPEDTAVYYCAAERPYSRVGYYYWGQGTQVTVSS”, the “polyreactivity (PSR sort gate)” value was “high polyreactivity”.
In the case of “QVQLVESGGGLVQAGGSLRLSCAASGITFTRYAMGWYRQAPGKEREFVAAIRRSGGNTYYADSVKGRFTISRDNAKNNVYLQRNSLKPEESAVYYCPASFRKTSPTRLVDYWGLGTQVTVSS”, the “polyreactivity (PSR sort gate)” value is reported as “low polyreactivity”.
In the case of “QVQLVESGGGLVQAGGSLRLSCAASGSIFYTNAMGWYRQAPGKERELVAAIRWSGGRTYYADSVKGRFTISRDNAKNTVFLQMNSLKPEDTAVYYCNVVVRYQSAYDYWGQGTQVTVSS”, the “polyreactivity (PSR sort gate)” value is reported as “high polyreactivity”.
For “QVQLVESGGGLVQAGGSLRLSCAASGRIFPGYAMGWYRQAPGKERELVAAISASGGSTYYADSVKGRFTISRDNAKNTVYLQMNSLKPEDTAVYDCNAVYRLIRFDYWGQGTQVTVSS”, the “polyreactivity (PSR sort gate)” value was “high polyreactivity”.
With “QVQLVESGGGLVQAGGSLRLTCAASGLTFTTYALGWYRQAPGKERELVAAISRRGSRTYYADSVKGRFTISRDNAKNTVYLQMNSLKPEDTAVYYCNALTGSFKTYSFDYWGQGTQVTVSS” the “polyreactivity (PSR sort gate)” value was “high polyreactivity”.
With “QVQLVESGGGLVQAGGSLRLSCAASGRIFWFYTMGWNRQAPGKERELVARITTSGGSTYYADSVKGRFTISRDNAKNTVYLQMNSLKPEDTAVYYCAARPRDYHSFSLDYYYWGQGTQVTVSS” the “polyreactivity (PSR sort gate)” value was “high polyreactivity”.
In the case of “QVQHVESGGGLVQAGGSLRLSCAASGYTFFANAMGGYRQAPGKERELVAGINRSGSTYYADSVKGRFTISRDNAKNTVYLQMNSLKPEDTAVYYFATAWHRGVRGRTSGAFDYWGQGTQVTVSS”, the “polyreactivity (PSR sort gate)” value is reported as “high polyreactivity”.
With “QVQLVESGGGLVQAGGSLRLSCAASGSTFGYYAMGWYRQAPGKERELVAAITWGGASTDYADSVKGRFTISRDNAKNTVYLQMNSLKPEDTAVYYCAKDNWDNPRPTSEMDYWGQGTQVTVSS” the “polyreactivity (PSR sort gate)” value was “low polyreactivity”.
For “QVQLVESGGGLVQAGGSLRLSCAASGFIFYKYAMGWYRQAPGKEREFVAAITWSGGNTYYADSVKGRFTISRDNAKNTVYLQMNSLKPEDTAVYYCAARDSKWGQGTQVTVSS”, the “polyreactivity (PSR sort gate)” value was “low polyreactivity”.
In the case of “QVQLVESGGGLVQAGGSLRLSCAASGRIFGVNAMGWYTQAPGKERELVAAIRYTGGSTYYADSVKGRFTISRDNAKNTVYLQMNSLKPEDTAVYYCAKARYTYSWSFGYWGQGTQVTVSS”, the “polyreactivity (PSR sort gate)” value is reported as “low polyreactivity”.
For “QVQLQESGGGLEQAGGSLRMSCAASGTIFSEANMGWYRQAPGKERELVATIGQGSTTNYADSVKGRFTISRDNAKNTVYLQMNSLKPEETPVYYCAVVTVDPVGFVYWGQGTQVTVSS”, the “polyreactivity (PSR sort gate)” value was “low polyreactivity”.
